Experiments:
[1] = tested on: human breast cancer MCF7A SEMA7A overexpressing cells; test: Immunofluorescence labeling of TAPI-1 treated SEMA7A overexpressing cells; type: cell-based; settings: antibody 250:1, FITC secondary, cells treated with TAPI-1
Description: In another exemplary method, the ability of anti-SEMA7A monoclonal antibodies to bind and label cells was tested. In an exemplary method, human breast cancer MCF7A SEMA7A overexpressing cells were treated with TAPI-1, a TACE/ADAM17 inhibitor that blocks SEMA7A shedding from the cell surface, and then incubated with an anti-SEMA7A monoclonal antibody (250:1) before visualization with a FITC secondary antibody (1000:1).
Cells were fixed with 2% PFA or 1:1 acetone-methanol for 30 minutes at 4C, before washing once with PBS and blocking with 1% BSA in PBST for 1 hour at room temperature. After removal of the blocking solution, cells were incubated in primary antibody in 1% BSA in PBST overnight at 4° C. The primary antibody (SmAbH1 (lot 022823) was prepared at a 1:250 concentration by adding 4 μL stock solution to ImL 1% BSA in PBS. After primary removal cells were washed with PBS for 10 min×3 and incubated in secondary antibody in 1% BSA in PBS for 1-2 hours at room temperature (covered from light). The secondary antibody (Donkey anti-Mouse IgG Alexa Fluor 488 (Invitrogen A-21202)) was prepared at 1:1000 concentration by adding 1 μL into ImL 1% BSA in PBS. After removal of secondary antibody cells were washed with PBS for 10 min×3. VECTASHIELD Antifade Mounting Medium with DAPI (Vector Labs H-1200-10) was added and the cells were sealed with a glass coverslip. […]

[2] = tested on: SEMA7A OE E0771 mouse mammary carcinoma cells; test: E0771 SEMA7A OE mouse mammary carcinoma model, in vivo antibody treatment; settings: SmAbH1 alone
Description: (§1) For initial in vivo studies with SmABHI. SEMA7A OE E0771 mouse mammary carcinoma cells were injected into mice. Twenty days after carcinoma cells were injected. SmAbH1 (e.g., 12 ug) was administered intraperitoneally to the mice every three days until day 36 post-carcinoma cell injection. Tissues were collected at day 36. Tumors, lungs, and LNs were harvested and processed for IHC and flow cytometry to determine the effect of SEMA7A mAb therapy on cells of the tumor microenvironment (TME). In an additional experiment, tumors were treated at day 28 post-injection with a novel SEMA7A directed antibody, monoclonal antibody clone H1. Fully regressed tumors were removed from treatment at day 50) and the animals were re-challenged with an additional tumor inoculation at day 90 to assess SEMA7A mAb effects. Finally, to examine changes in immune cells in the tumor microenvironment, tumors were treated at day 13 post-inoculation and harvested at day 18. During this time period, tumors were actively regressing (FIGS. 2A-2C).
E0771 model: Female C57/BL6 mice were injected orthotopically into the left and right #4 mammary fat pads with 200,000 E0771 SEMA7A OE mouse mammary carcinoma cells. Tumors were measured every day once tumors became palpable (3 days post injection). […]

[3] = tested on: activated T cells in the tumors; test: Flow cytometry of immune cells in treated tumors; type: in vivo, mouse; settings: IFNg and TNFa on CD8+ T cells
Description: as §1, with “Finally, to examine changes in immune cells in the tumor microenvironment, tumors were treated at day 13 post-inoculation and harvested at day 18. During this time period, tumors were actively regressing (FIGS. 2A-2C).” left out
Tumors were separated from the mammary gland and placed in six-well plates with 2 mL of Click's media without mercaptoethanol or L-glutamine (Irvine Scientific, Santa Ana, CA), where they were minced with scalpels, digested with 500 units/ml collagenase type II and IV and 20 μg/ml DNase (Worthington Biochemical Corporation, Lakewood, NJ) and incubated for 1 h at 37° C. […] Geometric mean fluorescence intensity (gMFI) was calculated with FlowJo software. […] Cells were then stained with CD8, CD45, CD4, Gating was determined based on unstimulated controls. […]

B1: SmAbH1: mouse monoclonal antibody against SEMA7A generated using the 10-mer immunizing peptide … (SEQ ID NO: 2) (antibody, V domains shown)
VH: QVKLQESGTVLARPGASVKMSCKASVYSFTSYWMHWVKQRPGQGLEWIGAIYPGNSDTSYNQKFKGKAKLTAVTSASTAYMELSSLTNEDSAVYYCTRGGAPTMITAYYAMDYWGQGTSVTVSS
VL: DIQMTQTTSSLSASLGDRVTISCRASQDISNYLNWYQQKPDGTVKLLIYYTSRLHSGVPSRFSGSGSGTDYSLTISNLEQEDIATYFCQQGNTLPWTFGGGTKLEIKR
labeling of cells [1]: labeled the cell lines treated with TAPI-I
tumor growth and metastasis compared to anti-PD-L1 and the combination [2]: superior at reducing both tumor growth and metastasis
activated T cells in the tumors [3]: increased presence of activated T cells

Source: patent publication US20250206839A1, “METHODS, COMPOSITIONS AND USES FOR SEMA7A MONOCLONAL ANTIBODIES” (THE REGENTS OF THE UNIVERSITY OF COLORADO, A BODY CORPORATE, priority 2022, published 2025)
